Reference: paper PMC3967914

Target: MHF1 (CENP-S);MHF2 (CENP-X) (Homo sapiens;Homo sapiens, UniProt Q8N2Z9;A8MT69 1-138;1-81, |)
Assay: X-ray crystallography

MHF1 (CENP-S);MHF2 (CENP-X), sequence (Q8N2Z9 whole entry, chain 1 of 2): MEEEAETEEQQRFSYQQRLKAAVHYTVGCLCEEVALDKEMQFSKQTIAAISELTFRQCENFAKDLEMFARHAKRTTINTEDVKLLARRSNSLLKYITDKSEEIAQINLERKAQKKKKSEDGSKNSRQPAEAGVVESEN
MHF1 (CENP-S);MHF2 (CENP-X), sequence (A8MT69 whole entry, chain 2 of 2): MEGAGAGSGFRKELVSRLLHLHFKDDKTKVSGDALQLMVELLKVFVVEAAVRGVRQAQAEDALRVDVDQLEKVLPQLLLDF

B1: 26 bp dsDNA (crystal) (dsDNA)
DNA 1: ATCAATATCCACCGGTGGATATTGAT
DNA 2: ATCAATATCCACCGGTGGATATTGAT
Q: Does B1 bind?
A: binds
